Reference: patent publication US20210246195A1 (CZ BIOHUB SF, published 2021)

T1: purified recombinant allergen Aspergillus fumigatus 1 (rAsp f 1) (Aspergillus fumigatus, UniProt P67875 28-176)
T1 sequence: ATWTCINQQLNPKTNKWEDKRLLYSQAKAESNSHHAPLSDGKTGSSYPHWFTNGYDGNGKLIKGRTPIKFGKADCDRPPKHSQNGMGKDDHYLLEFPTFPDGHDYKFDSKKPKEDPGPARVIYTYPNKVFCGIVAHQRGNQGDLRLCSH


Experiments:
[1] = biological target: T2, Ara h 3 (purified natural peanut allergen) (Arachis hypogaea); test: BLI, antibody on anti-human IgG Fc sensors, Ara h 3 as analyte, top 32 nM
T2 construct: mature; bought natural protein; also called natural Ara h 3; NA-AH3-1

BSA [2] = biological target: T3, BSA (UniProt P02769 25-607); test: indirect ELISA, OD heat map
T3 construct: also called bovine serum albumin; immobilized BSA

[3] = biological target: T1, purified recombinant allergen …; test: indirect ELISA, OD heat map
BSA [4] = biological target: T3, BSA; test: indirect ELISA, OD heat map; remark: listed apart in the source
BSA [5] = biological target: T3, BSA; test: indirect ELISA heat map, hIgG subtracted
[6] = biological target: T2, Ara h 3 (purified natural peanut …); test: BLI, antibody on anti-human IgG Fc sensors, Ara h 3 as analyte, top 16 nM

T2 sequence (main, as listed by the source): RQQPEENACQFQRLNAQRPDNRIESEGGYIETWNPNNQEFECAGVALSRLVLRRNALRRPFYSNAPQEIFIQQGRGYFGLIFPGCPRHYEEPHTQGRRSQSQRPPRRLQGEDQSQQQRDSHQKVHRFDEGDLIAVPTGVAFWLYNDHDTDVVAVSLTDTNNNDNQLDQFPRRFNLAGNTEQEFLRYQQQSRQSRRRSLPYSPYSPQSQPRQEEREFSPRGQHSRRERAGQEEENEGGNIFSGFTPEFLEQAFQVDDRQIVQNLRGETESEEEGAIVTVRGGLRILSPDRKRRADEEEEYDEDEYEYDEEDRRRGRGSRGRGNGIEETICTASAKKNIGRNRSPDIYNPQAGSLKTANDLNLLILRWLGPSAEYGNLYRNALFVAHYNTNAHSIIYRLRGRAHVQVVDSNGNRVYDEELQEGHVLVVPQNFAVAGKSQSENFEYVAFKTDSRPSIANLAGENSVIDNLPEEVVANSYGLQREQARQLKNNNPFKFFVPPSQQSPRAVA
T3 sequence (P02769 25-607 limits assumed): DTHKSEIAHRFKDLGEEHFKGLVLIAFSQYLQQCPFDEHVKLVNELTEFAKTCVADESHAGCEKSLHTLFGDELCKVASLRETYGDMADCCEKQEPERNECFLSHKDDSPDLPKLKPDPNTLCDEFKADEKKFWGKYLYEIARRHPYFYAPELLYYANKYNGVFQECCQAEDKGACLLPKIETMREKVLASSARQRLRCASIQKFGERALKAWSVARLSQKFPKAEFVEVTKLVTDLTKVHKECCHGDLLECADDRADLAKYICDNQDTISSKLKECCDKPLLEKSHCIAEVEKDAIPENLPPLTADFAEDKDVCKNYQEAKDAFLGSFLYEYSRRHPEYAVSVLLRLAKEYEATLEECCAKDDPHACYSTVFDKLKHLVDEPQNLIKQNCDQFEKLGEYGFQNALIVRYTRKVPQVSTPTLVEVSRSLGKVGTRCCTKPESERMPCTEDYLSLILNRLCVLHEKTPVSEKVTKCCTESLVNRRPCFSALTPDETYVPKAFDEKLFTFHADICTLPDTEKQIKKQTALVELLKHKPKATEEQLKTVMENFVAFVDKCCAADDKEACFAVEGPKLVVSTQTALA

| Binder | Kd [1] [nM] | binding result (BSA [2]) | also measured |
| --- | --- | --- | --- |
| PA13P1E10 (antibody, human IgG1, V domains shown, human IgG1, kappa) VH: QVQLVDSGGGVVQPGKSLRLSCVGSGFTFRTFGIHWVRQAPGKGLEWVAVISNDGGNSASADSVKGRFTTSRDNSKNTVYLQINSLRPEDTAIYYCAKVLDYSAFSYYYGMDVWGQGTTVIVSS VL: EIVLTQSPGTLSLSPGERGTLSCRTSQPISRAHLAWYQHKAGQAPRLLIYGSTERAAGIPERFSGGGSGSDFTLTISSLEAEDFAVYYCQHYGRSPPYTFGQGTKVEIK | 5 | no binding (tested: 2 ng/µL) |  |
| 1003320101_D6 (antibody, V domains shown, also called Clone 1003320101_D6) VH: EVQLVASGGGLIHPGGSLRLSCEASGFSFSRFWMYWVRQSPGEGLVWVARLSGDGTVTNYADSMEGRVTISRDNVKNTLFLEMNSLREGDTGIYYCARKDCPSLSCQLDYWGQGVQVTVSS VL: QSVLTQPPSVSAAPGQKVTISCSGSTSNIGKNYVSWYQHFPGAAPKLLIFDNDKRPSGIPDRFSGSRSGTSATLDITGLQTGDEADYFCATWDSRLSADVFGSGTTVSVL |  |  | binding result [3]: no binding (tested: 2 ng/µL); binding result (BSA [4]): no binding (tested: 2 ng/µL) |
| PA12P1G11 (antibody, human IgG1, V domains shown, human IgG1) VH: QVQLVQSGAEVRKPGSSVKVSCKASGGTFSNNPITWVRQAPGQGLEWMGWIIPIFNTTNYAQKFQGRVTITADESTSTAYMELSSLKSEDTALFYCARDRAHAYCNNGVCYTTDAFDVWGQGTLVTVSS VL: ETVLTQSPATLSLSPGERATLSCRASQSVGRYLAWYQHKPGQAPRLLIYDASNRATGIPARFSGSGSGTDFTLTISSLEPEDSAVYYCQQGTDWLTFGGGTKVEIK |  |  | binding result (BSA [5]): no binding (tested: 2 ng/µL) |
| PA12P3D08 (antibody, human IgG1, V domains shown, human IgG1, kappa) VH: QVQLVESGGGVVQPGKSLRLSCAASAFTFRRFAMHWVRQAPGKGLEWVAVISDNGLREDYEDSVKGRFTISRDNSQNTLYLQMNGLRAEDTAVYYCAKVLDYNEYSLYFGMDVWGQGTTVTVSS VL: EVVLTQSPATLSLSPGERATLSCRTSQAISNNFLAWYQQRPGQPPRLLIYASSRRATDTPDRFTGSGSGTDFTLTITRLEPEDFAVYFCQYYSDSPPYTFGPGTKLEIK | 22 | no binding (tested: 2 ng/µL) |  |
| PA12P1C07 (antibody, human IgG1, V domains shown, human IgG1, kappa) VH: QVQLEESGGGVVQPGKSLRLSCVASAFTFKRFAMHWVRQAPGKGLEWVAVISDNGLREDYEDSVKGRFTISRDNSKDTLYLQMNSLRPEDTAIYYCAKVLDYSEYSLYFGMDVWGQGTTVLVSS VL: EIVLTQSPAILSLSPGDRATLSCRTSQTVNSNFLAWYQQKPGQAPRLLIYGASRRAIDIPDRFTGSGSGTEFTLTIARLEPEDFAVYSCQHYSDSPPYTFGQGTKLEIK | 11 | no binding (tested: 2 ng/µL) |  |
| 1003320105_D6 (antibody, V domains shown, also called Clone 1003320105_D6) VH: EVQLLESGGGLVQPGGSLRLSCAASGFNFSNFAVSWVRQTPGKGLEWVSAILGSRSVTYYADSVKGRFTISRDKSKNALYLQMDSLRAEDTAIYYCAKLFFMPYSHDDSGDYWGQGTLVAVSS VL: QLVLTQSPSASASLGASVKLTCTLSSDHRSYAIAWHQQQPGKGPRYLMKVNRDGSHIKGDGIPHRFSGSSSVTERYLIISSLQSEDEADYYCQSWDTGIQVFGGGTRLTVV |  |  | binding result [3]: no binding (tested: 2 ng/µL); binding result (BSA [4]): no binding (tested: 2 ng/µL) |
| PA13P3G09 (antibody, human IgG1, V domains shown, human IgG1, kappa) VH: QEQLVESGGGVVHPGGSLRLSCVASAFTFNRFGMHWVRQAPGKGLEWVAVISNDGRSQDYADSVKGRFIISRDNSKNTLYLQLNSLRFEDTAVYYCAKVLDYSIFYYYFGLDVWGQGTTVTVSS VL: EVVLTQSPGSLSLSPGERATLSCRAGQSLSSKFLAWYQHKPGQAPRLLIYGASTRATGVPDRFSGSGSGTDFSLIISRVEPEDFAVYYCQHYGDSPPYTFGQGTKVEMK | 19 | no binding (tested: 2 ng/µL) |  |
| 1003320107_F8 (antibody, V domains shown, also called Clone 1003320107_F8) VH: EVQLVESGGGLVQPGGSLKLSCAASGFTFSGSTIHWVRQTSGKGLEWVGRIGSKATSYATAYAASVKGRFTISRDDSKNTAYLQMNSLKTEDTAVYFCTRRYYDTTKSVLVVSDSWGQGTLVTVSS VL: SYELTQPPSMSVSPGQTARITCSGDVLAKQFAYWYQQKPGQAPVLVIYKDSERPSGIPERFSGSSSGTIITLTISGVQAEDEADYYCQSADSSGTSWVFGGGTKLTVL |  |  | binding result [3]: no binding (tested: 2 ng/µL); binding result (BSA [4]): no binding (tested: 2 ng/µL) |
| PA13P1H03 (antibody, human IgG1, V domains shown, human IgG1) VH: EVQLVESGGGLVQPGGSLRLSCAASGFTFRNYWMNWVRQAPGKGLVWVSRINSEGSSTSYADPVKGRFTISRDNAKDTLYLQMDSLRAEDSAVYYCARIFNGYIHVGRDYWGQGTRVTVSS VL: DIQMTQSPSTLSASIGDRVTITCRASESISNWLAWFQQKPGKAPKLLIYKASNLESGVPSRFSGSGSGTEFTLTISSLQPDDFATYYCQQYNSNSQTFGQGTKLDLK |  |  | binding result (BSA [5]): no binding (tested: 2 ng/µL) |
| PA13P1H08 variant rCDR1-N (antibody, human IgG1, V domains shown, human IgG1, kappa; also called heavy chain CDR1 reverted) VH: QVQLVNSGGGVVQPGRSLRLSCVASGFTFSSYGIHWVRQAPGKGLEWVAVISNDGEKSESADSVKGRFTPSRDNSKNTVYLQMNNLRVEDTAVYYCAKVLDYSRYSYYYGMDVWGQGTTVIVSS VL: EIVLTQSPGTLSLSPGGRGTLSCRTSQTINNAHLAWYQHKPGQAPRLLIYGSSERATGVPDRFSGSGSGSDFTLTISSLEAEDFAVYYCQHYGRSPPYTFGPGTKLDIK |  | no binding (tested: 2 ng/µL) | Kd [6]: 0.5 nM |
| PA13P1H08 variant rCDR2-N (antibody, human IgG1, V domains shown, human IgG1, kappa; also called heavy chain CDR2 reverted) VH: QVQLVNSGGGVVQPGRSLRLSCVASGFTFSTFGIHWVRQAPGKGLEWVAVISYDGSNKESADSVKGRFTPSRDNSKNTVYLQMNNLRVEDTAVYYCAKVLDYSRYSYYYGMDVWGQGTTVIVSS VL: EIVLTQSPGTLSLSPGGRGTLSCRTSQTINNAHLAWYQHKPGQAPRLLIYGSSERATGVPDRFSGSGSGSDFTLTISSLEAEDFAVYYCQHYGRSPPYTFGPGTKLDIK |  | no binding (tested: 2 ng/µL) | Kd [6]: 0.0042 nM |
| PA13P1H08 variant rCDR3-N (antibody, human IgG1, V domains shown, human IgG1, kappa; also called heavy chain CDR3 reverted) VH: QVQLVNSGGGVVQPGRSLRLSCVASGFTFSTFGIHWVRQAPGKGLEWVAVISNDGEKSESADSVKGRFTPSRDNSKNTVYLQMNNLRVEDTAVYYCAKVLDYSNYYYYYGMDVWGQGTTVIVSS VL: EIVLTQSPGTLSLSPGGRGTLSCRTSQTINNAHLAWYQHKPGQAPRLLIYGSSERATGVPDRFSGSGSGSDFTLTISSLEAEDFAVYYCQHYGRSPPYTFGPGTKLDIK |  | no binding (tested: 2 ng/µL) | Kd [6]: 0.29 nM |
| PA12P3F10 (antibody, human IgG1, V domains shown, human IgG1, kappa) VH: QVQLVESGGGVVQPGGSLTLSCVGSGFTFSHYAIHWVRQAPGKGLEWVAVISNVGTTRDYADSLKGRLTISRENSQSTVFLQMNSLRADDTAIYYCAKVLDYSEFHYYYGLDVWGQGTAVAVSS VL: EIVLTQSPGTLSLSPGQRVTLSCRVSQAIPTMYVAWYQQRPGQAPRLLIYGTSSRATGIPDRFSGGGSGTDFTLTINRLEPEDIAVYYCQHYSNSPPYTFGPGTKLEIK | 11 | no binding (tested: 2 ng/µL) |  |
